Like-named read-outs stand apart in the source and are kept apart here.
What was measured:
[1] = target: T1, HCV ORFs (Gal4-DB fusions) (Hepatitis C virus genotype 1b, UniProt Q9WMX2); assay type: binding, HCV genotype 1b, isolate con1; conditions: human protein as prey
T1 construct: expressed in transfected cells; host or cells: Saccharomyces cerevisiae MAV203 (IMAP1) / AH109 (IMAP2)

[2] = test system: HCV ORFs (Gal4-DB fusions); assay type: binding, HCV genotype 1b, isolate con1; conditions: human protein listed by gene symbol; the value names the HCV protein it interacts with
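Note: yeast two-hybrid screens using HCV genotype 1b proteins fused to Gal4-DB as baits against prey cDNA libraries from human spleen and foetal brain, IMAP1 via transformation and IMAP2 via mating.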

| Molecule | IMAP Y2H IMAP2 (number of IST) ([1]; HCV protein NS5A as bait) | Interaction with viral protein [2] | IMAP Y2H IMAP2 (number of IST) ([1]; HCV protein NS3 as bait) | IMAP Y2H IMAP2 (number of IST) ([1]; HCV protein NS4A as bait) |
| --- | --- | --- | --- | --- |
| ACLY (protein, UniProt P53396 1-1101, looked up) ATP-citrate synthase: MSAKAISEQTGKELLYKFICTTSAIQNRFKYARVTPDTDWARLLQDHPWLLSQNLVVKPDQLIKRRGKLGLVGVNLTLDGVKSWLKPRLGQEATVGKATGFLKNFLIEPFVPHSQAEEFYVCIYATREGDYVLFHHEGGVDVGDVDAKAQKLLVGVDEKLNPEDIKKHLLVHAPEDKKEILASFISGLFNFYEDLYFTYLEINPLVVTKDGVYVLDLAAKVDATADYICKVKWGDIEFPPPFGREAYPEEAYIADLDAKSGASLKLTLLNPKGRIWTMVAGGGASVVYSDTICDLGGVNELANYGEYSGAPSEQQTYDYAKTILSLMTREKHPDGKILIIGGSIANFTNVAATFKGIVRAIRDYQGPLKEHEVTIFVRRGGPNYQEGLRVMGEVGKTTGIPIHVFGTETHMTAIVGMALGHRPIPNQPPTAAHTANFLLNASGSTSTPAPSRTASFSESRADEVAPAKKAKPAMPQDSVPSPRSLQGKSTTLFSRHTKAIVWGMQTRAVQGMLDFDYVCSRDEPSVAAMVYPFTGDHKQKFYWGHKEILIPVFKNMADAMRKHPEVDVLINFASLRSAYDSTMETMNYAQIRTIAIIAEGIPEALTRKLIKKADQKGVTIIGPATVGGIKPGCFKIGNTGGMLDNILASKLYRPGSVAYVSRSGGMSNELNNIISRTTDGVYEGVAIGGDRYPGSTFMDHVLRYQDTPGVKMIVVLGEIGGTEEYKICRGIKEGRLTKPIVCWCIGTCATMFSSEVQFGHAGACANQASETAVAKNQALKEAGVFVPRSFDELGEIIQSVYEDLVANGVIVPAQEVPPPTVPMDYSWARELGLIRKPASFMTSICDERGQELIYAGMPITEVFKEEMGIGGVLGLLWFQKRLPKYSCQFIEMCLMVTADHGPAVSGAHNTIICARAGKDLVSSLTSGLLTIGDRFGGALDAAAKMFSKAFDSGIIPMEFVNKMKKEGKLIMGIGHRVKSINNPDMRVQILKDYVRQHFPATPLLDYALEVEKITTSKKPNLILNVDGLIGVAFVDMLRNCGSFTREEADEYIDIGALNGIFVLGRSMGFIGHYLDQKRLKQGLYRHPWDDISYVLPEHMSM | 1 | NS5A |  |  |
| ARFIP1 (protein, UniProt P53367 2-373, looked up) Arfaptin-1: AQESPKNSAAEIPVTSNGEVDDSREHSFNRDLKHSLPSGLGLSETQITSHGFDNTKEGVIEAGAFQGSPAPPLPSVMSPSRVAASRLAQQGSDLIVPAGGQRTQTKSGPVILADEIKNPAMEKLELVRKWSLNTYKCTRQIISEKLGRGSRTVDLELEAQIDILRDNKKKYENILKLAQTLSTQLFQMVHTQRQLGDAFADLSLKSLELHEEFGYNADTQKLLAKNGETLLGAINFFIASVNTLVNKTIEDTLMTVKQYESARIEYDAYRTDLEELNLGPRDANTLPKIEQSQHLFQAHKEKYDKMRNDVSVKLKFLEENKVKVLHNQLVLFHNAIAAYFAGNQKQLEQTLKQFHIKLKTPGVDAPSWLEEQ | 9 | NS5A |  |  |
| ZMYM2 (protein, UniProt Q9UBW7 1-1377, looked up) Zinc finger MYM-type protein 2: MDTSSVGGLELTDQTPVLLGSTAMATSLTNVGNSFSGPANPLVSRSNKFQNSSVEDDDDVVFIEPVQPPPPSVPVVADQRTITFTSSKNEELQGNDSKITPSSKELASQKGSVSETIVIDDEEDMETNQGQEKNSSNFIERRPPETKNRTNDVDFSTSSFSRSKVNAGMGNSGITTEPDSEIQIANVTTLETGVSSVNDGQLENTDGRDMNLMITHVTSLQNTNLGDVSNGLQSSNFGVNIQTYTPSLTSQTKTGVGPFNPGRMNVAGDVFQNGESATHHNPDSWISQSASFPRNQKQPGVDSLSPVASLPKQIFQPSVQQQPTKPVKVTCANCKKPLQKGQTAYQRKGSAHLFCSTTCLSSFSHKPAPKKLCVMCKKDITTMKGTIVAQVDSSESFQEFCSTSCLSLYEDKQNPTKGALNKSRCTICGKLTEIRHEVSFKNMTHKLCSDHCFNRYRMANGLIMNCCEQCGEYLPSKGAGNNVLVIDGQQKRFCCQSCVSEYKQVGSHPSFLKEVRDHMQDSFLMQPEKYGKLTTCTGCRTQCRFFDMTQCIGPNGYMEPYCSTACMNSHKTKYAKSQSLGIICHFCKRNSLPQYQATMPDGKLYNFCNSSCVAKFQALSMQSSPNGQFVAPSDIQLKCNYCKNSFCSKPEILEWENKVHQFCSKTCSDDYKKLHCIVTYCEYCQEEKTLHETVNFSGVKRPFCSEGCKLLYKQDFARRLGLRCVTCNYCSQLCKKGATKELDGVVRDFCSEDCCKKFQDWYYKAARCDCCKSQGTLKERVQWRGEMKHFCDQHCLLRFYCQQNEPNMTTQKGPENLHYDQGCQTSRTKMTGSAPPPSPTPNKEMKNKAVLCKPLTMTKATYCKPHMQTKSCQTDDTWRTEYVPVPIPVPVYIPVPMHMYSQNIPVPTTVPVPVPVPVFLPAPLDSSEKIPAAIEELKSKVSSDALDTELLTMTDMMSEDEGKTETTNINSVIIETDIIGSDLLKNSDPETQSSMPDVPYEPDLDIEIDFPRAAEELDMENEFLLPPVFGEEYEEQPRPRSKKKGAKRKAVSGYQSHDDSSDNSECSFPFKYTYGVNAWKHWVKTRQLDEDLLVLDELKSSKSVKLKEDLLSHTTAELNYGLAHFVNEIRRPNGENYAPDSIYYLCLGIQEYLCGSNRKDNIFIDPGYQTFEQELNKILRSWQPSILPDGSIFSRVEEDYLWRIKQLGSHSPVALLNTLFYFNTKYFGLKTVEQHLRLSFGTVFRHWKKNPLTMENKACLRYQVSSLCGTDNEDKITTGKRKHEDDEPVFEQIENTANPSRCPVKMFECYLSKSPQNLNQRMDVFYLQPECSSSTDSPVWYTSTSLDRNTLENMLVRVLLVKDIYDKDNYELDEDTD |  | NS3 | 2 |  |
| TMEM63B (protein, UniProt Q5T3F8 1-832, looked up) Mechanosensitive cation …: MLPFLLATLGTTALNNSNPKDYCYSARIRSTVLQGLPFGGVPTVLALDFMCFLALLFLFSILRKVAWDYGRLALVTDADRLRRQERDRVEQEYVASAMHGDSHDRYERLTSVSSSVDFDQRDNGFCSWLTAIFRIKDDEIRDKCGGDAVHYLSFQRHIIGLLVVVGVLSVGIVLPVNFSGDLLENNAYSFGRTTIANLKSGNNLLWLHTSFAFLYLLLTVYSMRRHTSKMRYKEDDLVKRTLFINGISKYAESEKIKKHFEEAYPNCTVLEARPCYNVARLMFLDAERKKAERGKLYFTNLQSKENVPTMINPKPCGHLCCCVVRGCEQVEAIEYYTKLEQKLKEDYKREKEKVNEKPLGMAFVTFHNETITAIILKDFNVCKCQGCTCRGEPRPSSCSESLHISNWTVSYAPDPQNIYWEHLSIRGFIWWLRCLVINVVLFILLFFLTTPAIIITTMDKFNVTKPVEYLNNPIITQFFPTLLLWCFSALLPTIVYYSAFFEAHWTRSGENRTTMHKCYTFLIFMVLLLPSLGLSSLDLFFRWLFDKKFLAEAAIRFECVFLPDNGAFFVNYVIASAFIGNAMDLLRIPGLLMYMIRLCLARSAAERRNVKRHQAYEFQFGAAYAWMMCVFTVVMTYSITCPIIVPFGLMYMLLKHLVDRYNLYYAYLPAKLDKKIHSGAVNQVVAAPILCLFWLLFFSTMRTGFLAPTSMFTFVVLVITIVICLCHVCFGHFKYLSAHNYKIEHTETDTVDPRSNGRPPTAAAVPKSAKYIAQVLQDSEVDGDGDGAPGSSGDEPPSSSSQDEELLMPPDALTDTDFQSCEDSLIENEIHQ |  | NS3 | 1 |  |
| UBE1C (protein, UniProt Q8TBC4 2-463, looked up) NEDD8-activating enzyme E1 …: ADGEEPEKKRRRIEELLAEKMAVDGGCGDTGDWEGRWNHVKKFLERSGPFTHPDFEPSTESLQFLLDTCKVLVIGAGGLGCELLKNLALSGFRQIHVIDMDTIDVSNLNRQFLFRPKDIGRPKAEVAAEFLNDRVPNCNVVPHFNKIQDFNDTFYRQFHIIVCGLDSIIARRWINGMLISLLNYEDGVLDPSSIVPLIDGGTEGFKGNARVILPGMTACIECTLELYPPQVNFPMCTIASMPRLPEHCIEYVRMLQWPKEQPFGEGVPLDGDDPEHIQWIFQKSLERASQYNIRGVTYRLTQGVVKRIIPAVASTNAVIAAVCATEVFKIATSAYIPLNNYLVFNDVDGLYTYTFEAERKENCPACSQLPQNIQFSPSAKLQEVLDYLTNSASLQMKSPAITATLEGKNRTLYLQSVTSIEERTRPNLSKTLKELGLVDGQELAVADVTTPQTVLFKLHFTS |  | NS3 | 1 |  |
| TRAF3IP3 (protein, UniProt Q9Y228 1-551, looked up) TRAF3-interacting …: MISPDPRPSPGLARWAESYEAKCERRQEIRESRRCRPNVTTCRQVGKTLRIQQREQLQRARLQQFFRRRNLELEEKGKAQHPQAREQGPSRRPGQVTVLKEPLSCARRISSPREQVTGTSSEVFPAQHPPPSGICRDLSDHLSSQAGGLPPQDTPIKKPPKHHRGTQTKAEGPTIKNDASQQTNYGVAVLDKEIIQLSDYLKEALQRELVLKQKMVILQDLLSTLIQASDSSWKGQLNEDKLKGKLRSLENQLYTCTQKYSPWGMKKVLLEMEDQKNSYEQKAKESLQKVLEEKMNAEQQLQSTQRSLALAEQKCEEWRSQYEALKEDWRTLGTQHRELESQLHVLQSKLQGADSRDLQMNQALRFLENEHQQLQAKIECLQGDRDLCSLDTQDLQDQLKRSEAEKLTLVTRVQQLQGLLQNQSLQLQEQEKLLTKKDQALPVWSPKSFPNEVEPEGTGKEKDWDLRDQLQKKTLQLQAKEKECRELHSELDNLSDEYLSCLRKLQHCREELNQSQQLPPRRQCGRWLPVLMVVIAAALAVFLANKDNLMI |  | NS4A |  | 1 |

Source: US20110091994A1, “Methods for Screening Compounds for Treating and/or Preventing an Hepatitis C Virus Infection” (priority 2008, published 2011)
